± gives the uncertainty stated by the source.
Experiment: amyloid nucleation score (Sup35N fusion, yeast selection) (log enrichment); library NNK1; higher = more nucleation; inactive = no reads after selection
Summary of the method: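 Peptides of 20 random codons fused to Sup35N were expressed in psi-negative yeast, induced 24 hours with 100 μM copper sulfate, then grown 7 days at 30°C on medium lacking adenine and uracil. Input and output plasmid inserts were Illumina-sequenced. Nucleation score is the DiMSum log enrichment of output over input reads, centred on the mode score of non-aggregating sequences, excluding sequences with under 100 input reads. Random libraries had three technical output replicates.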

| Substance | amyloid nucleation score |
| --- | --- |
| FLSSCSMFMGRPWFSCYRVR | -1.02 ± 2.4 |
| FLYWSHSYFLITWFRCVLEI | inactive |
| FMALLQLAGVIWVSLTVLTP | 0.08 ± 0.62 |
| FMASTRRFPLSLMRRAHVYL | -0.182 ± 1.3 |
| FMDTAMTSFGSLSW | -0.317 ± 0.55 |
| FMFDNYIGRSGSGGCSGDGR | -0.417 ± 1.2 |
| FMHAFRNQRLNLAGLGFRVA | 0.573 ± 0.62 |
| FMLCNFLVVIYSGSR | 5.82 ± 0.063 |
| FMMSNWTNLNSWKTL | -0.122 ± 0.23 |
| FMPMNVSNKTSELRYFCNGP | 0.417 ± 0.74 |
| FMPRSLHLTTWLQSNAFNNA | 3.22 ± 0.068 |
| FNGRVRGYHSLDNVVHGRLY | 0.522 ± 0.58 |
| FNSGNQ | -0.442 ± 0.37 |
| FNTCMSLFSNCFPNCWMHFK | 0.428 ± 0.61 |
| FNVISVWSPWQW | 6.3 ± 0.064 |
| FNVLCPRRQNLSGVELD | -0.02 ± 0.45 |
| FNYYITFHCTCELECRGYCT | 7.841 ± 0.05 |
| FPDYQVLLQCYLN | 0.418 ± 0.38 |
| FPENGLRSFSCPLVH | 0.382 ± 0.66 |
| FPESNKLMV | 1.06 ± 0.65 |
| FPLGSFIDLQRDMGIN | 0.53 ± 0.4 |
| FPNALDYLYVV | -0.243 ± 0.22 |
| FPSARYNNLT | 0.655 ± 0.57 |
| FPTFLPQWTGKCFALRCGRW | inactive |
| FQHLNMVTAFSDSRGIPYML | 1.05 ± 0.38 |
| FQIRSRISIDCVMVNRDELS | 1.41 ± 0.18 |

| Substance | amyloid nucleation score |
| --- | --- |
| FQSDYRRRMFVMSD | -1.03 ± 1.4 |
| FQSLGTFLDIQLCGHNLVAE | 0.537 ± 0.34 |
| FQYLNLGISRHSARWTCTFL | -0.698 ± 1.4 |
| FQYTACIN | 1.08 ± 0.57 |
| FRHYTANYWYISRRRRMLSV | inactive |
| FRIAGSKRCFCID | 0.463 ± 0.31 |
| FRKGDILRTFSMFKSKYTVG | 0.839 ± 0.65 |
| FRLEGRCSLLFCTCRLDV | 0.561 ± 0.45 |
| FRLVNIIR | 0.317 ± 0.33 |
| FRMCCNYYICHLDGVILIG | 1.65 ± 0.26 |
| FRRLRMLLILASKFGVD | -0.392 ± 0.34 |
| FRRVVNVSCTLTHSWIILLM | 0.042 ± 1.1 |
| FRSPN | -0.285 ± 0.58 |
| FRWYRLRIIKSFSGNSASVR | 3.1 ± 0.074 |
| FRYKDGCSFSTAVDYSCRMF | 1.06 ± 0.23 |
| FSAIMVRC | inactive |
| FSASFNGLAAGRLASR | -0.105 ± 1.3 |
| FSCFLMEISKGRGH | 4.18 ± 0.11 |
| FSGCQSARGKLWVSDWEL | inactive |
| FSGLCRSTPGI | -0.469 ± 0.32 |
| FSHGFMITICHWEMTKETDW | -0.476 ± 0.37 |
| FSLFTWSWFR | 0.625 ± 0.42 |
| FSMSILENRYTTFELSGAYQ | -0.722 ± 0.66 |
| FSPSLVMHSATSLRNVGLSA | -0.93 ± 2.4 |
| FSRPWWRSWHSFFSHDEKTI | 0.282 ± 0.69 |
| FSRYLPKLNSLAKDSIPVGR | inactive |

| Substance | amyloid nucleation score |
| --- | --- |
| FSSEVRVWVWNCCFNRFSCI | 4.74 ± 0.061 |
| FSSGVILSGRRRSLK | -0.437 ± 0.49 |
| FSSQYQMSAGVF | -0.013 ± 0.56 |
| FSTHSIWSLRVSNSVSLFNE | 0.178 ± 0.66 |
| FSVNP | 1.22 ± 0.69 |
| FSYCAFHIMNQWVVFNYGGC | 6.421 ± 0.06 |
| FSYKIMTSGTCTTWRNAFFS | -0.341 ± 0.33 |
| FTDLFPEDRIWVPDYAGQRR | 0.255 ± 1.4 |
| FTESCRRGI | 0.053 ± 0.4 |
| FTRSQAV | inactive |
| FTSPVIKY | 0.089 ± 0.89 |
| FTWIVFANSSAYFRTLQWSC | 0.032 ± 0.28 |
| FVDFMQRNWGLVRVPCHVSL | inactive |
| FVETS | 0.198 ± 0.29 |
| FVEVVRTLEQI | -0.485 ± 1 |
| FVFKIWQSD | 0.116 ± 0.58 |
| FVGNPSRRWLCHCKFIAGGH | 0.137 ± 0.38 |
| FVLWIY | 0.14 ± 0.47 |
| FVMFMPFSSHFS | 0.848 ± 0.58 |
| FVQFTCSIRDYCA | 0.033 ± 0.97 |
| FVQWFASSCCIRPRRYFVSR | -1.42 ± 1.6 |
| FVRGDKLRTTGELSSAINRS | -0.608 ± 0.57 |
| FVSNGSYVGIS | -0.42 ± 0.51 |
| FVTANMTKLFTLWNWRLPGK | 0.583 ± 0.29 |
| FVTKGVERCRVPEVSLPCLI | -0.839 ± 1.2 |
| FWKGASINYS | inactive |

| Substance | amyloid nucleation score |
| --- | --- |
| FWKTLQIFRTMVVN | 0.055 ± 0.9 |
| FWNINSSFFGLTNDTLVPNF | 0.79 ± 0.22 |
| FWVSCRSMCEIRVSLKLRLN | 0.719 ± 0.59 |
| FWYFMLNMVQPRY | -0.198 ± 0.87 |
| FYCMLSSSSNFPSGNDRAYD | -0.341 ± 0.5 |
| FYFGTSDIPGFFNKSIYLVP | 0.435 ± 0.38 |
| FYFTHRFRITVRYSVLVMRT | 1.69 ± 0.51 |
| FYGFRCGYLDVSL | -0.648 ± 0.33 |
| FYLSYVIIYSSSIRCLSSCR | 0.388 ± 0.71 |
| FYRNIIKINMMVLWISWGHV | 0.185 ± 0.79 |
| FYTLKFMVKALTVKKGVCVV | inactive |
| FYWMMANRNTQCVVCFAVLR | -0.754 ± 0.54 |
| GAFGFITNRKRINCKLEDRD | -1.32 ± 2.4 |
| GAIEASLVYRISNFKAGFAP | 1.91 ± 0.35 |
| GAIIFLSCGWSKCFCTLWVI | -0.381 ± 0.38 |
| GAKICIYELVLHEMRACVAR | -0.282 ± 0.96 |
| GAPEVPIDYGLEASRNCSKG | -0.61 ± 1.4 |
| GAPLTENKFVLRNFVMGSAL | 0.159 ± 0.77 |
| GASGGVTASLLKTRITVTWV | -0.271 ± 0.79 |
| GATSFFFSFRESNPLSNNHS | 2.79 ± 0.099 |
| GAYLLPLSIWNLGPSNGR | 0.132 ± 0.44 |
| GCHLVWFGVVYRQQWSFGVD | 0.563 ± 0.57 |
| GCMVFS | 0.352 ± 0.76 |
| GCNSMTRLLRGAWPPPYWRG | 0.274 ± 0.77 |
| GCRTLHGGAVDKLYTWCHLA | 0.504 ± 0.92 |
| GCSTYMVLMVGLGGGMLGGF | 1.32 ± 0.26 |

| Substance | amyloid nucleation score |
| --- | --- |
| GCTSGGLCIGPPRSV | 0.906 ± 1 |
| GDAMASFPAACCGTRCCGFV | 0.41 ± 0.4 |
| GDKCLVTYCYLLGDGEGQQS | -0.05 ± 0.43 |
| GDLGCVYSLFRSLFSSFTRS | 0.111 ± 0.35 |
| GDNVFFMLERALFVVRNRRV | -0.386 ± 0.86 |
| GDSRTLGLLCFYMKVG | -0.352 ± 0.41 |
| GDVLVSTNHIGFFKGPG | 1.91 ± 0.27 |
| GEGSCGVSLSSMYLQWGARV | -0.663 ± 0.83 |
| GEKWMLEVASFICKSGFRVC | -0.535 ± 1.7 |
| GELCMLSVW | 0.729 ± 0.79 |
| GESKHKQSNECTQCC | 1.11 ± 0.37 |
| GEVFFLVRSSVVCWISLICA | -0.109 ± 0.39 |
| GFELEAIKEYFGCWPSHYRF | inactive |
| GFELVNVVGVIASLYNIIIV | 2.92 ± 0.2 |
| GFFHGHIGLQHMCELQCCSG | inactive |
| GFFYEWRVYCPAWINALWWH | 0.193 ± 0.77 |
| GFGPDQFITESDSFTSAFVS | 0.125 ± 0.55 |
| GFGPS | -0.275 ± 0.38 |
| GFGSELRYYYMSRGMYRIRP | 0.089 ± 0.88 |
| GFHSQG | -0.172 ± 0.41 |
| GFLICVFLSLVGYFGTCLRT | -0.554 ± 0.97 |
| GFLLGFCYPPQVQLVHVLTR | inactive |
| GFNLAW | -0.547 ± 0.56 |

— the supplement of paper PMC12042874
